From US20120148607A1 (ARGEN X N V, published 2012) come the findings set out here.

Like-named read-outs stand apart in the source and are kept apart here.

Assay [1] concerns the target T1, LS1 (aa1-98) llama-human c-Met chimera (Llama glama; human, UniProt P08581 123-933).
T1 construct: range 1-98 (mature numbering, E=1);range 99-909 (mature numbering, E=1; derived); not shown: Flag and strep tag
Put plainly: ELISA, 48A2 (2 µg/ml) immobilised, chimera added, streptavidin-HRP. An excerpt: (§1) An ELISA was run to investigate the binding of the mAbs to the different chimeras.

Assay [2] deals with T2, LS2 (aa1-199) llama-human c-Met chimera (Llama glama; human, UniProt P08581 224-933).
T2 construct: range 1-199 (mature numbering, E=1);range 200-909 (mature numbering, E=1; derived); not shown: Flag and strep tag
The assay is described as above.
Text: as §1

Assay [3] concerns the target T3, LS3 (aa1-287) llama-human c-Met chimera (Llama glama; human, UniProt P08581 312-933).
T3 construct: range 1-287 (mature numbering, E=1);range 288-909 (mature numbering, E=1; derived); not shown: Flag and strep tag
The description is as above.
Text: as §1

Assay [4] deals with T4, LS4 (aa1-348) llama-human c-Met chimera (Llama glama; human, UniProt P08581 373-933).
T4 construct: range 1-348 (mature numbering, E=1);range 349-909 (mature numbering, E=1; derived); not shown: Flag and strep tag
The assay is described as above.
Text: as §1

The target of assay [5] is T5, LS5 (aa1-448) llama-human c-Met chimera (Llama glama; human, UniProt P08581 473-933).
T5 construct: range 1-448 (mature numbering, E=1);range 449-909 (mature numbering, E=1; derived); not shown: Flag and strep tag
The assay is described as above.
Text: as §1

For assay [6], the target named is T6, LI8 (aa540-909) llama-human c-Met chimera (human; Llama glama, UniProt P08581 25-563).
T6 construct: range 1-539 (mature numbering, E=1; derived);range 540-909 (mature numbering, E=1); also called Ll8; not shown: Flag and strep tag
T6 sequence (P08581 25-563, change not shown): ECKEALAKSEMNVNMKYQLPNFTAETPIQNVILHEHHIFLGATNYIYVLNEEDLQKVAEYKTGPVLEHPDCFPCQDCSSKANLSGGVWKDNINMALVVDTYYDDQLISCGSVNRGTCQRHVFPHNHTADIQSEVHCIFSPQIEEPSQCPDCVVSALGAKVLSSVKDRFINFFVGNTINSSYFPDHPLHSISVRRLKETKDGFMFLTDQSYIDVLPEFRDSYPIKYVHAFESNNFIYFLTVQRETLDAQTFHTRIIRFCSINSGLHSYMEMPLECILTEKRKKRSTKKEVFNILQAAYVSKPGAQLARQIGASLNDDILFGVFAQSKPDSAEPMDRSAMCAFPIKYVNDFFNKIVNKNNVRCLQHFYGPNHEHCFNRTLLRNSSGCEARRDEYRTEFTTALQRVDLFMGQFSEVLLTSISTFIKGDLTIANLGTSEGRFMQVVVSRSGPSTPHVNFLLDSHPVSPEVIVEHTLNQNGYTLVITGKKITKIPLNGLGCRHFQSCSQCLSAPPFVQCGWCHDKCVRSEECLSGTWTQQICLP
The assay is described as above.
Text: as §1

Assay [7] has as its target T7, LI9 (aa572-909) llama-human c-Met chimera (human; Llama glama, UniProt P08581 25-595).
T7 construct: range 1-571 (mature numbering, E=1; derived);range 572-909 (mature numbering, E=1); also called Ll9; not shown: Flag and strep tag
Described as above.
Text: as §1

In assay [8] the target is T8, LI10 (aa608-909) llama-human c-Met chimera (human; Llama glama, UniProt P08581 25-631).
T8 construct: range 1-607 (mature numbering, E=1; derived);range 608-909 (mature numbering, E=1); also called Ll10; not shown: Flag and strep tag
T8 sequence (P08581 25-631, change not shown): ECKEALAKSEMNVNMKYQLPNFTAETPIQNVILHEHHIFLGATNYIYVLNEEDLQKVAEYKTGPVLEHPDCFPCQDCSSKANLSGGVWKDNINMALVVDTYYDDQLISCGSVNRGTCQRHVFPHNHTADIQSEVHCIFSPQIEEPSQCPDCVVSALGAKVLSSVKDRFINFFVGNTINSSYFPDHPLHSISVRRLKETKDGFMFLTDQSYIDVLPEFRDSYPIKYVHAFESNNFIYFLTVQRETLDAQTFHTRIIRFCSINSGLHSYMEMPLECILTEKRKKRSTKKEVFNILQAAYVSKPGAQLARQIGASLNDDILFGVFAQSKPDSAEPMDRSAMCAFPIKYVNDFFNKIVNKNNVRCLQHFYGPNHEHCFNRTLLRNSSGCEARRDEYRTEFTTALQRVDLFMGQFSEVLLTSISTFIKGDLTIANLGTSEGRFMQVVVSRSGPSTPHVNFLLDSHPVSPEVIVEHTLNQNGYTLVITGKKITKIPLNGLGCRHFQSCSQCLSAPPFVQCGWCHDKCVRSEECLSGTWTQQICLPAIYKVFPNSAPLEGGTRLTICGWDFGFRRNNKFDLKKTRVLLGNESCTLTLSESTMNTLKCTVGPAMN
Described as above.
Text: as §1

Assay [9] addresses T9, LI11 (aa634-909) llama-human c-Met chimera (human; Llama glama, UniProt P08581 25-657).
T9 construct: range 1-633 (mature numbering, E=1; derived);range 634-909 (mature numbering, E=1); also called Ll11; not shown: Flag and strep tag
Described as above.
Text: as §1

The target of assay [10] is T10, Decoy c-Met (extracellular domain of human c-Met) (human, UniProt P08581 25-932).
T10 construct: extracellular domain; also called Decoy Met; monomeric Decoy Met
T10 sequence (P08581 25-932): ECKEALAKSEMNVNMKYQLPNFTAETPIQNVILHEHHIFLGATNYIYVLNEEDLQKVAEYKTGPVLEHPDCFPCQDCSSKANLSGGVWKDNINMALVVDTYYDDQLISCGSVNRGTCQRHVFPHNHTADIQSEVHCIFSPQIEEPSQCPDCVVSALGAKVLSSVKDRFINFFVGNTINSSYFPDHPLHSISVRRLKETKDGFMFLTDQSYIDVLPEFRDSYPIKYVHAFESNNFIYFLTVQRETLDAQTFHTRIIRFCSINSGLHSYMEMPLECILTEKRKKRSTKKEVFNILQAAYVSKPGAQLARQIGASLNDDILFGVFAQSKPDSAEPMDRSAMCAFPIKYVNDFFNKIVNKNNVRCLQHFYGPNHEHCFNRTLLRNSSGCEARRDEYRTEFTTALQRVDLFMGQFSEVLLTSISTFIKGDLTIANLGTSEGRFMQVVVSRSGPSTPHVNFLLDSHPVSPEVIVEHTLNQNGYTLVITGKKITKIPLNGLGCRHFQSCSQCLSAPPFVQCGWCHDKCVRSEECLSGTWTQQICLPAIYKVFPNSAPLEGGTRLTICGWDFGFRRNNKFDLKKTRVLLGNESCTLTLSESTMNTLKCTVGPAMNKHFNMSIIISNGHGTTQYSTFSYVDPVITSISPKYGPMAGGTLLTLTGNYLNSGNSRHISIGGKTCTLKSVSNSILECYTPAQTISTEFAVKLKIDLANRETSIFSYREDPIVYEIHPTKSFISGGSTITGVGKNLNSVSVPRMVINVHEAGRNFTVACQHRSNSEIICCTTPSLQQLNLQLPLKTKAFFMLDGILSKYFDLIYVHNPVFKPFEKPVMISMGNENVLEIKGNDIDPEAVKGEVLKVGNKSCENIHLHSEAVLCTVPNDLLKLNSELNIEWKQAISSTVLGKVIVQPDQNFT
Put plainly: binding ELISA, human c-Met (Decoy).

For assay [11], the target named is T11, Rhesus (Maccaca mulatta, US20090191580-5) c-Met ECD (Rhesus (Maccaca mulatta)).
T11 construct: extracellular domain; also called Rhesus c-Met ECD; Rhesus ECD
Put plainly: binding ELISA, Rhesus c-Met ECD immobilised (1 µg/ml). As for the experimental part: Cross reactivity to Rhesus (Maccaca mulatta, US20090191580_{—}5) c-Met ECD and mouse c-Met (R&D systems cat no: 527-ME) was performed in a binding ELISA. Rhesus ECD was immobilized in PBS (1 μg/ml) on a 96-well maxisorb plate and incubated at 4° C. over night. After blocking with 1% casein in PBS, the antibodies in dilutions starting with 10 μg/ml were added and allowed to bind for 1 h at room temperature. The plate was washed and a goat anti-human Fcγ antibody (Jackson) was added and incubated for 1 h at room temperature. After washing, TMB was added and the plate read at 620 nm

Assay [12] has as its target T1, LS1 (aa1-98) llama-human c-Met chimera. The experiment in a line: ELISA, 36C4 (2 µg/ml) immobilised, chimera added, streptavidin-HRP.
Text: as §1

Assay [13] concerns the target T12, LP6 (aa497-909) llama-human c-Met chimera (human; Llama glama, UniProt P08581 25-520).
T12 construct: range 1-496 (mature numbering, E=1; derived);range 497-909 (mature numbering, E=1); not shown: Flag and strep tag
The description is as above.
Text: as §1

The target in assay [14] is T13, LP7* (aa523-909) llama-human c-Met chimera (human; Llama glama, UniProt P08581 25-546).
T13 construct: range 1-522 (mature numbering, E=1; derived);range 523-909 (mature numbering, E=1); not explained further; not shown: Flag and strep tag
The assay is described as above.
Text: as §1

Assay [15] addresses T6, LI8 (aa540-909) llama-human c-Met …. The description is as above.
Text: as §1

Assay [16] has as its target T7, LI9 (aa572-909) llama-human c-Met …. Described as above.
Text: as §1

Assay [17] concerns the target T8, LI10 (aa608-909) llama-human c-Met …. Described as above.
Text: as §1

Assay [18] concerns the target T9, LI11 (aa634-909) llama-human c-Met …. Described as above.
Text: as §1

In assay [19] the target is T14, HMet (human c-Met of Table 16) (human, UniProt P08581 25-932, limits assumed).
T14 construct: Label not explained in the text; not shown: Flag and strep tag
T14 sequence (P08581 25-932 limits assumed): as the sequence (P08581 25-932) above
Put plainly: ELISA, 36C4 (2 µg/ml) immobilised, c-Met construct added, streptavidin-HRP.
Text: as §1

Assay [20] addresses T15, human c-Met ECD (aa 25-932) with His tag (human, UniProt P08581 25-932).
T15 construct: range 25-932; Soluble protein from HEK293 cells; also called human c-Met (WT); not shown: His tag
Put plainly: ELISA: 200 ng of the c-Met ECD protein coated on maxisorb plates; mAb dilutions 1 h RT; HRP-conjugated goat anti-human antibody, TMB, OD 620 nm.

The target of assay [21] is T16, human/llama-IPT chimeric c-Met ECD (human; Llama glama, UniProt P08581 25-567).
T16 construct: range 25-567;range 568-932; Human c-Met in which IPT1-4 is exchanged for the llama IPT1-4; also called human/llama IPT1-4; construct with the human SEMA-PSI; not shown: His tag
T16 sequence (P08581 25-567, change not shown): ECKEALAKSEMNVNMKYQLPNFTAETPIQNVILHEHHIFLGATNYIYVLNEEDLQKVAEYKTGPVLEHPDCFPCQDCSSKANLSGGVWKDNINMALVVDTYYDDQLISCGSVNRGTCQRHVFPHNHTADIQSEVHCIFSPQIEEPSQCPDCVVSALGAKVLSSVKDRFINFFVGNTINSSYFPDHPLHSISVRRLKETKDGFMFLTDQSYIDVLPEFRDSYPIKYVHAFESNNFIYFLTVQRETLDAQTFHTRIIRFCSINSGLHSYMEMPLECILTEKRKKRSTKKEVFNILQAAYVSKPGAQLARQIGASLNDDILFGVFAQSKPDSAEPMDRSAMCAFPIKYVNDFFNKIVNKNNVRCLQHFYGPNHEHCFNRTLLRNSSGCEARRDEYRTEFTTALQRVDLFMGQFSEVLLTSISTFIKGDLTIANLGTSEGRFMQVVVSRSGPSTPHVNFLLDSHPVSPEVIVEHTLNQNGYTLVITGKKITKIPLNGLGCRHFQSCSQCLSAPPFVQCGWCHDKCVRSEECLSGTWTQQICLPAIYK
The assay is described as above.

Assay [22] addresses T10, Decoy c-Met (extracellular domain of …). Put plainly: ELISA: c-Met ectodomain coated at 1 µg/ml on maxisorb plate; mAb in three-fold dilutions from 1 µg/ml, 1 h RT; HRP-conjugated Protein A, TMB, OD 450.
Assay [23] has as its target T17, recombinant dimeric c-Met (R&D systems, 358-MT/CF) (human, UniProt P08581 25-932).
T17 construct: Bought product; also called Fc-Met; recombinant c-Met
The experiment in a line: competition ELISA: recombinant dimeric c-Met (100 ng/ml) captured by coated mouse anti-His antibody; antibody dilutions 30 min, then 25 ng/ml N-terminally biotinylated HGF (the competitor); strep-HRP, TMB, 620 nm; percent competition against the controls. As for the experimental part: Competition with N-terminally biotinylated HGF for binding to immobilized c-Met was performed using an ELISA-based competition assay. Five μg/ml mouse anti-His antibodies (Serotech) was immobilized on a maxisorb plate and, after blocking with 1% casein in PBS for 2 h, 100 ng/ml recombinant dimeric c-Met was added and incubated for 1 h at room temperature. After washing, dilutions of the antibodies were added and allowed to bind to the captured c-Met for 30 minutes, before 25 ng/ml N-terminally biotinylated HGF (R&D systems, 294-HGN/CF) was added. Biotinylated HGF was incubated at room temperature for 1 h before washing. Horseradish-conjugated streptavidin (strep-HRP) was added and incubated for an additional hour. TMB was added and the plate read at 620 nm. An isotype control (hIgG1λ) was included as a control as well as murine 5D5 antibody. Competition was expressed as percentage competition as compared to the controls (strep-HRP only or hIgG1λ) and plotted against the concentration of antibodies. An IC₅₀ was calculated using GraphPad Prism (Table 10). Antibodies 13E6 and 20A11 only displaced HGF partially (about 50%), which may be related to the epitope these two mAbs recognize on the c-Met.

Assay [24] deals with T10, Decoy c-Met (extracellular domain of …). The experiment in a line: ELISA: c-Met ectodomain coated at 1 µg/ml on maxisorb plate; mAb in three-fold dilutions from 1 µg/ml, 1 h RT; HRP-conjugated Protein A, TMB, OD 450. The source holds these as a separate data set.
The next assay concerns the target T18, c-Met SEMA ectodomain (human, UniProt P08581 27-515).
T18 construct: domain: SEMA; also called SEMA domain
Described as above.

The target of assay [25] is T19, c-Met SEMA-PSI ectodomain (human, UniProt P08581 25-562, limits assumed).
T19 construct: domain: SEMA-PSI
The description is as above.

T1 sequence (P08581 123-933, change not shown): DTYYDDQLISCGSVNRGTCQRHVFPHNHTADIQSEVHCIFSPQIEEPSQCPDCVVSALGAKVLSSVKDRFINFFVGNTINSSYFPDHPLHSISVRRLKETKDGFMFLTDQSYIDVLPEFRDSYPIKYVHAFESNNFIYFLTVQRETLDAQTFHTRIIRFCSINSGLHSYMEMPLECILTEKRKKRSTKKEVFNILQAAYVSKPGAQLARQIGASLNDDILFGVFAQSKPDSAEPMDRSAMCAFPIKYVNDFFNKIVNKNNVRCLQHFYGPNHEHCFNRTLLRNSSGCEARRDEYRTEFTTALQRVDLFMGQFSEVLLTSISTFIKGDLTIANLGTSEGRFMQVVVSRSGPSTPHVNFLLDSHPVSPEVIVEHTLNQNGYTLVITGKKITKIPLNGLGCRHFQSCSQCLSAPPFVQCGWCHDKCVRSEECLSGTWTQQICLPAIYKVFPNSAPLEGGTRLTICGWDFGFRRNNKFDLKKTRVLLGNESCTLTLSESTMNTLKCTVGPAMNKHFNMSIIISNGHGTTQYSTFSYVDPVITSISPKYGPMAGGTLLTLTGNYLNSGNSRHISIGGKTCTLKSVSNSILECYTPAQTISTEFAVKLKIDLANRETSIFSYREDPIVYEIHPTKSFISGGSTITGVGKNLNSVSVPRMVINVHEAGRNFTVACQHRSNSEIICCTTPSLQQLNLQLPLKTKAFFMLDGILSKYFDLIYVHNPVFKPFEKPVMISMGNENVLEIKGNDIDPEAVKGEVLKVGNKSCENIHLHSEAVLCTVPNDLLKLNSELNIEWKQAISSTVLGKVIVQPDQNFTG
T9 sequence (P08581 25-657, change not shown): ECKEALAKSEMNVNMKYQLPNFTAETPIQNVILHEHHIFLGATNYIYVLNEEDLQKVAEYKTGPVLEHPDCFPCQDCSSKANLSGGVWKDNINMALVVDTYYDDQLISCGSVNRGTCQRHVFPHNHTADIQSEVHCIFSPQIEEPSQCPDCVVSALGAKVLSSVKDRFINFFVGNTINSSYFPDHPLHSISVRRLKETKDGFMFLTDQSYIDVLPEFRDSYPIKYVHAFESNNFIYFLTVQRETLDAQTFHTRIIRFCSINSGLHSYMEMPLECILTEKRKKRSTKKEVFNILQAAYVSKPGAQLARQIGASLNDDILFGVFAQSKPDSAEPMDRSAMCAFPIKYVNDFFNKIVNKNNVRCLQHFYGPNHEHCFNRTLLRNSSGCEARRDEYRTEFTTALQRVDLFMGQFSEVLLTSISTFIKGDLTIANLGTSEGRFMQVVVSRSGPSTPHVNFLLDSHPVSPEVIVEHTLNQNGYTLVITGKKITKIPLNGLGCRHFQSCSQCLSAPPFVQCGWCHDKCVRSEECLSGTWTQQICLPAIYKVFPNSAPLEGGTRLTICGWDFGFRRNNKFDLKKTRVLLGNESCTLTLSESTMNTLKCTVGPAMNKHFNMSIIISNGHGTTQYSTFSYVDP
T17 sequence (P08581 25-932 limits assumed): as the sequence (P08581 25-932) above
T7 sequence (P08581 25-595, change not shown): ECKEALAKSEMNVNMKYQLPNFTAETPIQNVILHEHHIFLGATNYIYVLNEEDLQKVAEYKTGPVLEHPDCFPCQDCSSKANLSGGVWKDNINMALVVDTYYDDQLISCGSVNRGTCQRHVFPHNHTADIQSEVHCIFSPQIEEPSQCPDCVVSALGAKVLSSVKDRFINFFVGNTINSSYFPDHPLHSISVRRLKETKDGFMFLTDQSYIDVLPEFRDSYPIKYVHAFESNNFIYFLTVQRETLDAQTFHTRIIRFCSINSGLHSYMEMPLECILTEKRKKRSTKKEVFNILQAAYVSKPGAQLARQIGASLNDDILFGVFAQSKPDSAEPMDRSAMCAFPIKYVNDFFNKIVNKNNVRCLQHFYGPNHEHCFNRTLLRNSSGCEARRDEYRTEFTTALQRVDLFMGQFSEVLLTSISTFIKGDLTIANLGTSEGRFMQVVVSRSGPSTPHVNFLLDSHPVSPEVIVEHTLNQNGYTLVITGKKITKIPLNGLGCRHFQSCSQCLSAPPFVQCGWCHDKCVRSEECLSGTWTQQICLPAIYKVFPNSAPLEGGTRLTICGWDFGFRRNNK
T15 sequence (P08581 25-932 limits assumed): as the sequence (P08581 25-932) above

B1: 48A2 mAb (antibody, V domains shown)
VH: EVQLVQPGVELRNPGASVKVSCKASGYIFTMNSIDWVRQAPGQGLEWMGRIDPEDGGTKYAQKFQGRVTFTADTSTSTAYVELNSLRSEDTAVYYCARVDDYYLGYDYWGQGTQVTVSS
VL: DIVMTQTPTSVTASAGDKVTINCKSSQSVLFSSNQKNYLAWYQQRLGQSPRLLIYWASIRESGVPDRFSGSGSATDFTLTISNFQPEDAAVYYCQQGYSFPYSFGSGTRLEIR
In the case of B1, the EC50 in assay [1] was 0.031 µg/mL; in [2], 0.034 µg/mL; in assay [3], 0.05 µg/mL; in [4], 0.07 µg/mL; in assay [5], 0.05 µg/mL; in [6], > 0.04 µg/mL. Besides, the values for the half-maximal effective concentration (EC50) in assay [7], in assay [8] and in [9] were > 0.04 µg/mL, > 0.04 µg/mL and 0.042 µg/mL, respectively.

B2: 36C4 mAb (antibody, V domains shown)
VH: QVQLVESGPGLVKPSQTLSLTCAVSGGSITTNYYYWSWIRQSPGKGLEWMGVIAYDGSTDYSPSLKSRTSISRDTSKNQFSLQLSSVTPEDTAVYYCARDVRVIATGWATANALDAWGQGTLVTVSS
VL: QSVLTQPPSVSGSPGKTVTISCAGTSSDVGYGNYVSWYQQLPGTAPKLLIFAVSYRASGIPDRFSGSKSGNTAFLTISGLQSEDEADYYCASYRSSNNAAVFGGGTHLTVL
notes: also called SIMPLE antibody 36C4
For B2, the EC50 in [10] came out at 0.13 nM; in assay [11], 0.14 nM; in assay [12], 0.068 µg/mL; in assay [13] it was 0.05 µg/mL; in assay [14], 0.055 µg/mL; in assay [15], 0.047 µg/mL. For the same molecule, the EC50 in [16] turned out to be 0.047 µg/mL; in assay [17], 0.047 µg/mL; in assay [18] it was 0.045 µg/mL; in assay [19], 0.06 µg/mL. In addition, the figures for the “EC50 (read off the curve)” value in assay [20], in assay [21] and in [22] were ~600 pM, ~600 pM and ~20 ng/mL, respectively. The “IC50 (read off the curve)” value in assay [23] was ~200 pM.

B3: 40B8 mAb (antibody, V domains shown)
VH: EVQLVQPGAELRNPGASVKVSCKASGYTFTNYVIDWVRQAPGQGLEWMGRIDPENGGTRYAQKFQGRVTFTADTSTSTAYVELSNLRSEDTAVYYCARLEDYELAYDYWGQGTQVTVSS
VL: DIVMTQTPSSVTASAGEKVTINCKSSQSVLLSSNQKNYLAWYQQRLGQSPRLLIYWASTRESGVPDRFSGSGSTTDFTLTISSFQPEDAAVYYCQQGVSFPLTFGQGTKVELK
With B3, the figures for the EC50 in assay [10] and in [11] were 0.14 nM and 0.13 nM, respectively. Also, the “EC50 (read off the curve)” value in [24] was ~30 ng/mL. The binding result (with c-Met SEMA ectodomain; in assay [25]) was “no binding (tested: 1000 ng/ml)” in each case. In addition, the “IC50 (read off the curve)” value in [23] was ~80 pM.
